Measurements reported in PMC6895266, “Zika virus NS3 is a canonical RNA helicase stimulated by NS5 RNA polymerase”.

Tests used:
[1] = molecular target: ZIKV NS5, purified recombinant (UniProt A0A024B7W1); test: co-immunoprecipitation (IP Myc) with purified proteins, western blot quantification; details: parent: est. 1.0; read off a plot
[2] = molecular target: NS3F (full-length NS3) WT (Zika virus, UniProt A0A2D0WX26 1504-2119); test: fluorescence polarization; 5 mM MgCl2, no ATP; details: protein: recombinant; tags: His; Myc (anti-myc blot); label: Cy3 (printed before the 5' end); single strand

| Molecule | ratio to parent [1] | Kd [2] [nM] |
| --- | --- | --- |
| ZIKV full-length NS3 (NS3F, residues 2-617), purified recombinant N569A; E573A | 0.16 |  |
| GCGUCUUUACGGUGCU (ssRNA) [Cy3-ssRNA 16-mer] |  | 99 ± 7 |
